Experimental data as given in FireProtDB (doi:10.1128/aem.02129-17).

B1: Lipase, P19515 (parent)
chain: MVLKQRANYLGFLIVFFTAFLVEAVPIKRQSNSTVDSLPPLIPSRTSAPSSSPSTTDPEAPAMSRNGPLPSDVETKYGMALNATSYPDSVVQAMSIDGGIRAATSQEINELTYYTTLSANSYCRTVIPGATWDCIHCDATEDLKIIKTWSTLIYDTNAMVARGDSEKTIYIVFRGSSSIRNWIADLTFVPVSYPPVSGTKVHKGFLDSYGEVQNELVATVLDQFKQYPSYKVAVTGHSLGGATALLCALDLYQREEGLSSSNLFLYTQGQPRVGDPAFANYVVSTGIPYRRTVNERDIVPHLPPAAFGFLHAGEEYWITDNSPETVQVCTSDLETSDCSNSIVPFTSVLDHLSYFGINTGLCT

Variants of: B1
Details: Rhizomucor miehei; pH 8; Thermal; DSF; sodium phosphate buffer 50 mM; structure 6QPR; whole UniProt chain shown

Variant: T112K T116I E324I S150C N157C
- Tm: 69.3 °C
- change of melting temperature, mutant - wild type (higher = more stable): 10.6 °C

Variant: T112K T116I E324I V283C D332C
- Tm: 72.3 °C
- change of melting temperature, mutant - wild type (higher = more stable): 13.6 °C

Variant: T112K E324I
- Tm: 66.7 °C
- change of melting temperature, mutant - wild type (higher = more stable): 8 °C

Variant: T112I
- Tm: 58.1 °C
- change of melting temperature, mutant - wild type (higher = more stable): -3 °C

Variant: T112K
- Tm: 63.2 °C
- change of melting temperature, mutant - wild type (higher = more stable): 4.5 °C

Variant: T112W
- Tm: 57.8 °C
- change of melting temperature, mutant - wild type (higher = more stable): -2.2 °C

Variant: T112K T116I
- Tm: 64 °C
- change of melting temperature, mutant - wild type (higher = more stable): 5.3 °C

Variant: T116I
- Tm: 61.1 °C
- change of melting temperature, mutant - wild type (higher = more stable): 2.4 °C

Variant: D332R
- Tm: 58 °C
- change of melting temperature, mutant - wild type (higher = more stable): -2.8 °C

Variant: D332L
- Tm: 57.8 °C
- change of melting temperature, mutant - wild type (higher = more stable): -2.5 °C

Variant: D332W
- Tm: 58.7 °C
- change of melting temperature, mutant - wild type (higher = more stable): -4.5 °C

Variant: D332F
- Tm: 58.2 °C
- change of melting temperature, mutant - wild type (higher = more stable): -3 °C

Variant: D332Y
- Tm: 58.7 °C
- change of melting temperature, mutant - wild type (higher = more stable): -5.4 °C

Variant: D332P
- Tm: 58.7 °C
- change of melting temperature, mutant - wild type (higher = more stable): -3.8 °C

Variant: N321L
- Tm: 59.3 °C
- change of melting temperature, mutant - wild type (higher = more stable): -13 °C

Variant: N358W
- Tm: 57.2 °C
- change of melting temperature, mutant - wild type (higher = more stable): -2.7 °C

Variant: N214R
- Tm: 59.4 °C
- change of melting temperature, mutant - wild type (higher = more stable): -13.6 °C

Variant: N214L
- Tm: 59.2 °C
- change of melting temperature, mutant - wild type (higher = more stable): -7.5 °C

Variant: N280L
- Tm: 59.3 °C
- change of melting temperature, mutant - wild type (higher = more stable): -10 °C

Variant: N280W
- Tm: 55.6 °C
- change of melting temperature, mutant - wild type (higher = more stable): -3.1 °C

Variant: S208W
- Tm: 59.5 °C
- change of melting temperature, mutant - wild type (higher = more stable): 3.9 °C

Variant: S208F
- Tm: 59.2 °C
- change of melting temperature, mutant - wild type (higher = more stable): -6.4 °C

Variant: S208V
- Tm: 59.1 °C
- change of melting temperature, mutant - wild type (higher = more stable): -4.9 °C

Variant: S208Y
- Tm: 58.9 °C
- change of melting temperature, mutant - wild type (higher = more stable): -5.5 °C

Variant: D320L
- Tm: 58.7 °C
- change of melting temperature, mutant - wild type (higher = more stable): -3.3 °C

Variant: E324L
- Tm: 64.1 °C
- change of melting temperature, mutant - wild type (higher = more stable): 5.4 °C

Variant: E324I
- Tm: 64.4 °C
- change of melting temperature, mutant - wild type (higher = more stable): 5.7 °C

Variant: E324Y
- Tm: 60.8 °C
- change of melting temperature, mutant - wild type (higher = more stable): 2.1 °C

Variant: E324F
- Tm: 60.3 °C
- change of melting temperature, mutant - wild type (higher = more stable): 1.6 °C

Variant: E324T
- Tm: 62.5 °C
- change of melting temperature, mutant - wild type (higher = more stable): 3.8 °C

Variant: E324P
- Tm: 61.2 °C
- change of melting temperature, mutant - wild type (higher = more stable): 2.5 °C

Variant: E324W
- Tm: 61.4 °C
- change of melting temperature, mutant - wild type (higher = more stable): 2.7 °C

Variant: E324V
- Tm: 64.1 °C
- change of melting temperature, mutant - wild type (higher = more stable): 5.4 °C

Variant: E324M
- Tm: 60 °C
- change of melting temperature, mutant - wild type (higher = more stable): 1.3 °C

Variant: E324R
- Tm: 59.9 °C
- change of melting temperature, mutant - wild type (higher = more stable): 1.2 °C

Variant: E314V
- Tm: 58.8 °C
- change of melting temperature, mutant - wild type (higher = more stable): -5.3 °C

Variant: E314I
- Tm: 58.7 °C
- change of melting temperature, mutant - wild type (higher = more stable): -2.7 °C

Variant: T112K T116I E324I
- Tm: 68.1 °C
- change of melting temperature, mutant - wild type (higher = more stable): 9.4 °C

Variant: Q327I
- Tm: 59.5 °C
- change of melting temperature, mutant - wild type (higher = more stable): 2.3 °C
